# Substitutions are numbered along the chain they refer to. Where a SMILES comes first, the peptide text is derived from it. Where no end group is shown, it is not given here. [ ]: non-standard residue; d: D form. Nle = CCCC[C@H](N)C(=O)O
# Experiments:
# hPTHR1-H223R (human) = hPTHR1-H223R (human) (UniProt Q03431); assay: cell-based or functional assay
# [1] = molecular target: human parathyroid hormone receptor 1 (hPTHR1) (human) (UniProt Q03431); assay: cell-based or functional assay
# human PTHR1-H223R = molecular target: T1, human PTHR1-H223R (Homo sapiens, UniProt Q03431, H223R); assay: Inverse agonism on basal cAMP signaling in GHR-10 cells; type: cell-based; conditions: GHR-10 cells, from AUC, representative experiment
# T1 construct: expressed in transfected cells; host or cells: GHR-10 (HEK-293 stably expressing GloSensor and PTHR1-H223R)
# T1 sequence (Q03431 27-593 H223R): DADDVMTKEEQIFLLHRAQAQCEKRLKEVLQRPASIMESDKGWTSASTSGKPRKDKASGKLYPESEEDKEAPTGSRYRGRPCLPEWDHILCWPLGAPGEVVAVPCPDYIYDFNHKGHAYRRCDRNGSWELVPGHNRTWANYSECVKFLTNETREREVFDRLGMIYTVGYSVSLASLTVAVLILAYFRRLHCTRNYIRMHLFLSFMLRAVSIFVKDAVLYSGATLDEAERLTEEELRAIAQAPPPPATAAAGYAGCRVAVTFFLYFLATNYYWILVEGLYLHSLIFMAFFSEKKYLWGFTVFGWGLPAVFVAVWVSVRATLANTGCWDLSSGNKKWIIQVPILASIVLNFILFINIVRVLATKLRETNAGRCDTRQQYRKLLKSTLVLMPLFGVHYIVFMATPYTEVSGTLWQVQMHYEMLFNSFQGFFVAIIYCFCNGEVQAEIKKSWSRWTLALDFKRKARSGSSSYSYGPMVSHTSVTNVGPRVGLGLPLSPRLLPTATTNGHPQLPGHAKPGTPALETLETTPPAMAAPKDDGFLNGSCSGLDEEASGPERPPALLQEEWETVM
# Method: cAMP signaling was assessed in the HEK293-derived or SaOS2-derived cell lines stably expressing the luciferase-based GloSensor™ cAMP reporter (Hattersley et al., Paper presented at: Novel Signaling Mechanisms and Bone Cell Biology 2014; Binkowski et al., Methods in molecular biology. 756:263-271). HEK-293 cells were further transfected to stably express the hPTHR1, hPTHR1-H223R, or hPTHR1-T410P. The cells were seeded into 96-well white plates and were assayed 24 to 48 hours post-confluency. Assays were performed at room temperature in CO2-independent culture media (Life Technologies, Corp., Carlsbad, Calif.) containing 0.1% BSA (CIDB). The cells were pre-loaded with luciferin (0.5 mM in CIDB) for 15 minutes, then PTH peptides were added at varying concentrations. cAMP-dependent luminescence was measured at two-minute intervals using a PerkinElmer Envision plate reader. The time at which maximum luminescence (cps) observed with agonist alone, typically at 10-20 minutes after agonist addition, was used to obtain data from wells containing antagonist with or without agonist, to thus generate antagonist ligand dose-response curves. The resulting cps values were then plotted against ligand concentration using GraphPad Prism 7.0 software and a four-parameter logistics curve fitting equation, which yielded parameters of inhibitory potency (pIC50).
# These experiments were performed in HEK-293 cells stably transfected to express the GloSensor™ cAMP reporter along with a constitutively active mutant human PTHR1. The HEK-293 cells stably expressing GloSensor™ cAMP reporter along with a constitutively active mutant human PTHR1-H223R are GHR-10 cells. The HEK-293 cells stably expressing GloSensor™ cAMP reporter along with a constitutively active mutant human PTHR1-T410P are GTP-4 cells. The HEK-293 cells stably expressing GloSensor™ cAMP reporter along with a WT-PTHR1 are GP-2.3 cells. GP-2.3 cells were used as control. […] Effects on basal cAMP signaling over time were assessed during periods of direct ligand addition (FIGS. 15A-15F). The measurements were performed by recording GloSensor™ luminescence as counts per second (cps) using a PerkinElmer Envision plate reader. The data are illustrated in FIGS. 15A-15F. Data are from triplicate wells (means±SEM) of a single experiment representative of two others.
# Persistence of the antagonist/inverse agonist effects (prolonged action) as follows. Effects of eight peptides on basal and PTH(1-34)-stimulated cAMP signaling by PTHR-H223R were assessed in GHR-10 cells (HEK-293-derived cells stably expressing glosensor cAMP reporter and PTHR1-H223R). Time courses of changes in cAMP levels were recorded in three consecutive phases:
# 1) after initial addition of a candidate antagonist/inverse agonist (1×10^−6 M-1×10^−9 M) to cells pre-loaded for […] with luciferin (left column);
# 2) after removal of unbound inverse agonist by extensive wash-out with buffer and replenishment with fresh luciferin-containing buffer (middle column); and
# Control wells were treated with vehicle. GloSensor™ luminescence, as counts per second (cps), was recorded using a PerkinElmer Envision plate reader. Data are from duplicate wells (means±SEM) of a single experiment representative of two others. The results are illustrated in Table 7 and in FIGS. 16A-16C, 17A-17C, 18A-18C, 19A-19C, 20A-20C, 21A-21C, 22A-22C, and 23A-23C.
# GHR10 cells were treated with vehicle or vehicle containing the indicated peptide for 24 minutes and cAMP-dependent luminescence was recorded at two-minute intervals. The cells were then washed to remove unbound ligand and media containing fresh luciferin was added, and cAMP luminescence was recorded for another 26 minutes. Percentage reduction was calculated from the area-under-the-curve (AUC) values derived from the time course plots using the equation: […]
# endogenous hPTHR1 = molecular target: T2, endogenous hPTHR1 (Homo sapiens, UniProt Q03431); assay: Antagonism of PTH(1-34)- and PTHrP(1-36)-induced cAMP response (GloSensor) in SGS-72 cells; type: cell-based; conditions: IC50 PTH(1-34) (Table 6, nanomolar value), antagonist pre-treatment 15 minutes, PTH(1-34) 0.3 nM
# T2 construct: Saos-2, in which is endogenously expressed the hPTHR1; endogenous in cells
# T2 sequence (Q03431 27-593): T1 sequence (Q03431 27-593 H223R) with R197H
# Method: cAMP signaling was assessed in the HEK293-derived or SaOS2-derived cell lines stably expressing the luciferase-based GloSensorTM cAMP reporter ([…] al., Paper presented at: Novel Signaling Mechanisms and Bone Cell Biology 2014; Binkowski et al., Methods in molecular biology. 756:263-271). HEK-293 cells were further transfected to stably express the hPTHR1, hPTHR1-H223R, or hPTHR1-T410P. The cells were seeded into 96-well white plates and were assayed 24 to 48 hours post-confluency. Assays were performed at room temperature in CO2-independent culture media (Life Technologies, Corp., Carlsbad, Calif.) containing 0.1% BSA (CIDB). The cells were pre-loaded with luciferin (0.5 mM in CIDB) for 15 minutes, then PTH peptides were added at varying concentrations. cAMP-dependent luminescence was measured at two-minute intervals using a PerkinElmer Envision plate reader. The time at which maximum luminescence (cps) observed with agonist alone, typically at 10-20 minutes after agonist addition, was used to obtain data from wells containing antagonist with or without agonist, to thus generate antagonist ligand dose-response curves. The resulting cps values were then plotted against ligand concentration using GraphPad Prism 7.0 software and a four-parameter logistics curve fitting equation, which yielded parameters of inhibitory potency (pIC50). Pharmacological properties of the ligands were assessed in cells expressing the PTHR1 and the GloSensorTM cAMP reporter. The assays used GP-2.3 cells, derived from HEK293 cells by stable transfection with the hPTHR1 and GloSensorTM, as well as SGS-72 cells, which are derived from the human osteosarcoma cell line, Saos-2, in which is endogenously expressed the hPTHR1, by stable transfection with GloSensorTM. Binding of representative polypeptides to the PTHR1 was assessed in GP-2.3 cells by radioligand competition methods (FIGS. 1A and 1B, Table 3). […] In Table 5, antagonist assays were performed in SGS-72 cells (SaOS2 cells with stable GloSensorTM cAMP reporter) at room temperature. […] The mean (±sem) concentration of antagonist that inhibited the maximum agonist-induced response observed in the absence of antagonist (at 40 minutes) is reported in units of -log M (pIC50), and the corresponding nanomolar value is shown below each pIC50 value. Data are means of the number of seven experiments. The PTH(1-34)-induced maximum luminescence was 500,000 cps and the basal was 5,000 cps. TMR indicates Lys13 modified at epsilon amino function with TMR. The data are illustrated in FIG. 7A. […] Date are means (±SEM) of the number of separate experiments indicated by n.
Molecule,"Reduction of basal cAMP, % vehicle; After ligand washout; GHR-10 cells (hPTHR1-H223R (human))","Reduction of basal cAMP, % vehicle; Ligand @ -6M; GHR-10 cells (hPTHR1-H223R (human))","IC50, antagonism of PTH(1-34) (0.3 nM)-induced cAMP response, SGS-72 cells [1]","pIC50, antagonism of PTH(1-34) (0.3 nM)-induced cAMP response, SGS-72 cells [1]","Reduction of basal cAMP, % vehicle, After ligand washout (human PTHR1-H223R; 26 minutes after washout of unbound ligand)","Reduction of basal cAMP, % vehicle, Ligand @ −6M (human PTHR1-H223R; peptide 1×10^−6 M for 24 minutes)",IC50 (endogenous hPTHR1)
"Nle8, L11, dW12, W23-LA-PTH(7-36)-1997 (peptide)",71 % vehicle,70 % vehicle,2.1 nM,8.68 -log M,–,–,–
"dW12, W23-LA-PTH(7-36)-1990 (peptide)",39 % vehicle,50 % vehicle,1.23 nM,8.91 -log M,–,–,–
"L11, dW12, W23-LA-PTH(5-36)-2003 (peptide)",64 % vehicle,66 % vehicle,2.57 nM,8.59 -log M,–,–,–
LA-PTH(5-36)-2012 (IQLMHQRAKWIQDARRRAFLHKLIAEIHTAEI-NH2) [compound 2012],–,–,–,–,−49 % vehicle,−15 % vehicle,–
"L11, dW12, W23-LA-PTH(7-36)-2001 (peptide)",65 % vehicle,66 % vehicle,2.08 nM,8.68 -log M,–,–,–
"Nle8, L11, dW12, W23-LA-PTH(5-36)-1999 (peptide)",62 % vehicle,63 % vehicle,2.75 nM,8.56 -log M,–,–,–
"CCCC[C@H](NC(=O)[C@H](CC(C)C)NC(=O)[C@H](CCC(N)=O)NC(=O)[C@@H](N)[C@@H](C)CC)C(=O)N[C@@H](Cc1c[nH]cn1)C(=O)N[C@@H](CCC(N)=O)C(=O)N[C@@H](CCCNC(=N)N)C(=O)N[C@H](Cc1c[nH]c2ccccc12)C(=O)N[C@@H](CCCCN)C(=O)N[C@@H](Cc1c[nH]c2ccccc12)C(=O)N[C@H](C(=O)N[C@@H](CCC(N)=O)C(=O)N[C@@H](CC(=O)O)C(=O)N[C@@H](C)C(=O)N[C@@H](CCCNC(=N)N)C(=O)N[C@@H](CCCNC(=N)N)C(=O)N[C@@H](CCCNC(=N)N)C(=O)N[C@@H](C)C(=O)N[C@@H](Cc1c[nH]c2ccccc12)C(=O)N[C@@H](CC(C)C)C(=O)N[C@@H](Cc1c[nH]cn1)C(=O)N[C@@H](CCCCN)C(=O)N[C@@H](CC(C)C)C(=O)N[C@H](C(=O)N[C@@H](C)C(=O)N[C@@H](CCC(=O)O)C(=O)N[C@H](C(=O)N[C@@H](Cc1c[nH]cn1)C(=O)N[C@H](C(=O)N[C@@H](C)C(=O)N[C@@H](CCC(=O)O)C(=O)N[C@@H](Cc1ccc(O)cc1)C(N)=O)[C@@H](C)O)[C@@H](C)CC)[C@@H](C)CC)[C@@H](C)CC [compound 1954, Nle8, dW12, W23, Y36-LA-PTH(5-36)] (H-IQL[Nle]HQR[dW]KWIQDARRRAWLHKLIAEIHTAEY-NH2; N-terminus assumed)",–,–,–,–,–,–,1.75 nM
"Nle8, dW12, W23-LA-PTH(7-36)-1992 (peptide)",40 % vehicle,51 % vehicle,1.55 nM,8.81 -log M,–,–,–
